Like-named read-outs stand apart in the source and are kept apart here.
Assays:
[1] = target: T1, 4H2713-AA; assay: two-hybrid library CCmax;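 note: natural log of median RNA to DNA barcode read ratio; higher means stronger binding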
T1 chain: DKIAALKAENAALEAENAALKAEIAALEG

[2] = target: T2, 4H2742-AA; assay: two-hybrid library CCmax; conditions: mean of both orientations;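 note: natural log of median RNA to DNA barcode read ratio; higher means stronger binding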
T2 chain: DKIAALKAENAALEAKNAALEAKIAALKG

[3] = target: T3, 4H2948-AA; assay: two-hybrid library CCmax; conditions: mean of both orientations;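 note: natural log of median RNA to DNA barcode read ratio; higher means stronger binding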
T3 chain: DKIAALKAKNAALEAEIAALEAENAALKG

[4] = target: T4, 4H2991-AA; assay: two-hybrid library CCmax; conditions: mean of both orientations;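 note: natural log of median RNA to DNA barcode read ratio; higher means stronger binding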
T4 chain: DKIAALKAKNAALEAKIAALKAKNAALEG

[5] = target: T5, 4H3029-AA; assay: two-hybrid library CCmax; conditions: mean of both orientations;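 note: natural log of median RNA to DNA barcode read ratio; higher means stronger binding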
T5 chain: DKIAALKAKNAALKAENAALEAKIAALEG

[6] = target: T6, 4H3066-AA; assay: two-hybrid library CCmax; conditions: mean of both orientations;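 note: natural log of median RNA to DNA barcode read ratio; higher means stronger binding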
T6 chain: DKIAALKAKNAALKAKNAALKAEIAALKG

[7] = target: T7, 4H3102-AA; assay: two-hybrid library CCmax; conditions: mean of both orientations
T7 chain: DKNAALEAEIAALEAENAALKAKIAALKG

[8] = target: T8, 4H3121-AA; assay: two-hybrid library CCmax; conditions: mean of both orientations
T8 chain: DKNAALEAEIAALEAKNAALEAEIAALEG

[9] = target: T9, 4H3417-AA; assay: two-hybrid library CCmax; conditions: mean of both orientations
T9 chain: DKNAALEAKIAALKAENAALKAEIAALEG

[10] = target: T10, 4H3446-AA; assay: two-hybrid library CCmax; conditions: mean of both orientations
T10 chain: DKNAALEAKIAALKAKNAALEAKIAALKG

[11] = target: T11, 4H3591-AA; assay: two-hybrid library CCmax; conditions: mean of both orientations
T11 chain: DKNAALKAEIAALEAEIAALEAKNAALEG

[12] = target: T12, 4H3628-AA; assay: two-hybrid library CCmax; conditions: mean of both orientations
T12 chain: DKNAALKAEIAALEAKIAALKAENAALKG

[13] = target: T13, 4H3666-AA; assay: two-hybrid library CCmax; conditions: mean of both orientations
T13 chain: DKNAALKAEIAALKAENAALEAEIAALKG

[14] = target: T14, 4H3709-AA; assay: two-hybrid library CCmax; conditions: mean of both orientations
T14 chain: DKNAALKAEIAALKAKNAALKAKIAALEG

[15] = target: T15, 4H391-AA; assay: two-hybrid library CCmax; conditions: mean of both orientations
T15 chain: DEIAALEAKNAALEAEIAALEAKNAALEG

[16] = target: T16, 4H3920-AA; assay: two-hybrid library CCmax; conditions: mean of both orientations
T16 chain: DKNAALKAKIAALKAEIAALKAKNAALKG

[17] = target: T17, 4H3939-AA; assay: two-hybrid library CCmax; conditions: mean of both orientations
T17 chain: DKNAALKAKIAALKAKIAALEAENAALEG

[18] = target: T18, 4H428-AA; assay: two-hybrid library CCmax; conditions: mean of both orientations
T18 chain: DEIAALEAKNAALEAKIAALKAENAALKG

[19] = target: T19, 4H478-AA; assay: two-hybrid library CCmax; conditions: mean of both orientations
T19 chain: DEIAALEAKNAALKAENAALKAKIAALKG

[20] = target: T20, 4H497-AA; assay: two-hybrid library CCmax; conditions: mean of both orientations
T20 chain: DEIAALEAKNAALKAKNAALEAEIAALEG

[21] = target: T21, 4H656-AA; assay: two-hybrid library CCmax; conditions: mean of both orientations
T21 chain: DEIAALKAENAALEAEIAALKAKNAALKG

[22] = target: T22, 4H675-AA; assay: two-hybrid library CCmax; conditions: mean of both orientations
T22 chain: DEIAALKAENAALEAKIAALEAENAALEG

[23] = target: T23, 4H971-AA; assay: two-hybrid library CCmax; conditions: mean of both orientations
T23 chain: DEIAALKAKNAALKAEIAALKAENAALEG

[24] = target: T24, P8-AA; assay: two-hybrid library CCmax
T24 chain: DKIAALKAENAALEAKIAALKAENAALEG

[25] = target: T25, P9-AA; assay: two-hybrid library CCmax; conditions: mean of both orientations
T25 chain: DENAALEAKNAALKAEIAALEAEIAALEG

[26] = target: T26, zCON9_A; assay: two-hybrid library CCmax
T26 chain: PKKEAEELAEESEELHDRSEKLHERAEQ

[27] = target: T27, zCON9_B; assay: two-hybrid library CCmax; conditions: mean of both orientations
T27 chain: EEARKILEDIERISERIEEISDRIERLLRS

[28] = target: T28, zCON9_D; assay: two-hybrid library CCmax
T28 chain: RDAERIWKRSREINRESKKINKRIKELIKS

[29] = target: T29, 4H3628-bN; assay: two-hybrid library CCNG1
T29 chain: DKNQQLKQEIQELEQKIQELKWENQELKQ

[30] = target: T30, 4H3817-bN; assay: two-hybrid library CCNG1
T30 chain: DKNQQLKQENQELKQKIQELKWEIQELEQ

[31] = target: T31, 4H3858-bN; assay: two-hybrid library CCNG1
T31 chain: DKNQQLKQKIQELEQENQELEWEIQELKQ

[32] = target: T32, 4H3926-bN; assay: two-hybrid library CCNG1
T32 chain: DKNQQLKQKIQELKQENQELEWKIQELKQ

[33] = target: T33, 4H3974-bN; assay: two-hybrid library CCNG1
T33 chain: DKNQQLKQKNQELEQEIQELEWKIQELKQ

[34] = target: T34, 4H570-bN; assay: two-hybrid library CCNG1
T34 chain: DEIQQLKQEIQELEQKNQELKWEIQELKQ

[35] = target: T35, 4H591-bN; assay: two-hybrid library CCNG1
T35 chain: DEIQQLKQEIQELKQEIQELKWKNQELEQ

[36] = target: T36, 4H626-bN; assay: two-hybrid library CCNG1
T36 chain: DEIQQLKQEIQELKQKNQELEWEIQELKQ

[37] = target: T37, 4H687-bN; assay: two-hybrid library CCNG1
T37 chain: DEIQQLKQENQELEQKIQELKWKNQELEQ

[38] = target: T38, 4H850-bN; assay: two-hybrid library CCNG1
T38 chain: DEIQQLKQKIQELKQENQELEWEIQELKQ

[39] = target: T39, 4H906-bN; assay: two-hybrid library CCNG1
T39 chain: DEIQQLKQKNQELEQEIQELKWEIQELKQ

[40] = target: T40, O9-bP; assay: two-hybrid library CCNG1
T40 chain: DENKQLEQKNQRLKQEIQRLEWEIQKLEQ

[41] = target: T41, P4-AA; assay: two-hybrid library CCmax
T41 chain: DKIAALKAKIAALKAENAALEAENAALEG

[42] = target: T42, P7-AA; assay: two-hybrid library CCmax; conditions: mean of both orientations
T42 chain: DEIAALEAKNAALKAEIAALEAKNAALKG

[43] = target: T43, P11-AA; assay: two-hybrid library CCmax
T43 chain: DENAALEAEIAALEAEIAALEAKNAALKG

[44] = target: T44, P12-AA; assay: two-hybrid library CCmax; conditions: mean of both orientations
T44 chain: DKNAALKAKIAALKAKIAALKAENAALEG

[45] = target: T45, P2-AA; assay: two-hybrid library CCmax; conditions: mean of both orientations
T45 chain: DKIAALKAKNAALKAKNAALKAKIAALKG

[46] = target: T46, P3-AA; assay: two-hybrid library CCmax; conditions: mean of both orientations
T46 chain: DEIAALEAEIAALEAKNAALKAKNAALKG

[47] = target: T47, O9-bS; assay: two-hybrid library CCNG1; conditions: mean of both orientations
T47 chain: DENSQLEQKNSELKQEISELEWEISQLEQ

[48] = target: T48, 4H3613-bN; assay: two-hybrid library CCNG1
T48 chain: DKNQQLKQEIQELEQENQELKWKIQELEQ

Work on DKIAALKAENAALEAENAALKAEIAALEG [4H2713-AA] yielded an interaction score [1] of 0.691, an interaction score [2] of -0.508 and an interaction score [3] of -1.84. For the same binder, the interaction score [4] was -1.79, the interaction score [5] was 1.75 and the interaction score [6] was 1.76. It also gave an interaction score [7] of -0.638, an interaction score [8] of -1.64 and an interaction score [9] of -1.19. For the same binder, the interaction score [10] was -1.15, the interaction score [11] was -1.25 and the interaction score [12] was -1.22. It also gave an interaction score [13] of -1.39, an interaction score [14] of -1.95 and an interaction score [15] of -1.91. For the same binder, the interaction score [16] was -1.61, the interaction score [17] was -1.59 and the interaction score [18] was -1.87. The interaction score [19] was 2.27, the interaction score [20] was 0.0354 and the interaction score [21] was -1.66. For the same binder, the interaction score [22] was -1.83 and the interaction score [23] was -1.57.

DKIAALKAENAALEAKIAALKAENAALEG [P8-AA] showed an interaction score [24] of -1.57, an interaction score [25] of -0.207 and an interaction score [26] of -1.74. The interaction score [27] was -1.66 and the interaction score ([28]; mean of both orientations) was -1.98.

For DKNQQLKQEIQELEQKIQELKWENQELKQ [4H3628-bN], the interaction score [29] was -0.36, the interaction score [30] was -1.03 and the interaction score [31] was -2.07. The interaction score [32] was -0.307, the interaction score [33] was -0.134 and the interaction score [34] was -1.33. For the same binder, the interaction score [35] was -0.603, the interaction score [36] was -2.08 and the interaction score [37] was -0.529. For the same binder, the interaction score [38] was -1.18, the interaction score [39] was 0.069 and the interaction score [40] was -0.345.

In the case of DKIAALKAKIAALKAENAALEAENAALEG [P4-AA], the interaction score [41] is reported as -2.32, the interaction score [42] is reported as -1.41 and the interaction score ([24]; mean of both orientations) is reported as -1.82. The interaction score [25] was -1.18, the interaction score [26] was -1.68 and the interaction score [27] was -1.1. For the same binder, the interaction score ([28]; mean of both orientations) was -3.43.

For DENAALEAEIAALEAEIAALEAKNAALKG [P11-AA], the interaction score [43] was -1.19, the interaction score [44] was 1.97 and the interaction score [45] was 0.243. It also gave an interaction score [46] of -1.5, an interaction score ([41]; mean of both orientations) of 1.68 and an interaction score [42] of -1.07. For the same binder, the interaction score ([24]; mean of both orientations) was -1.23, the interaction score [25] was -1.18 and the interaction score [26] was -1.48. The interaction score [27] was -0.891 and the interaction score [28] was -1.93.

Work on DENSQLEQKNSELKQEISELEWEISQLEQ [O9-bS] yielded an interaction score [47] of -1.16.

Binder DKNQQLKQEIQELEQENQELKWKIQELEQ [4H3613-bN] has an interaction score [48] of -0.839, an interaction score [29] of -1.69 and an interaction score [30] of -0.783. The interaction score [31] was -0.655, the interaction score [32] was 0.45 and the interaction score [33] was -1.53. For the same binder, the interaction score [34] was -0.737, the interaction score [35] was -0.893 and the interaction score [36] was -1.98. It also gave an interaction score [38] of -0.0632 and an interaction score [39] of -1.78.

Source: PMC10397247
